{
  "source": "IntAct's records for PubMed 25910212",
  "parents": {"B1": {"name": "Carbonic anhydrase-related protein (Homo sapiens), P35219 (parent)", "chain": "MADLSFIEDTVAFPEKEEDEEEEEEGVEWGYEEGVEWGLVFPDANGEYQSPINLNSREARYDPSLLDVRLSPNYVVCRDCEVTNDGHTIQVILKSKSVLSGGPLPQGHEFELYEVRFHWGRENQRGSEHTVNFKAFPMELHLIHWNSTLFGSIDEAVGKPHGIAIIALFVQIGKEHVGLKAVTEILQDIQYKGKSKTIPCFNPNTLLPDPLLRDYWVYEGSLTIPPCSEGVTWILFRYPLTISQLQIEEFRRLRTHVKGAELVEGCDGILGDNFRPTQPLSDRVIRAAFQ", "partner": "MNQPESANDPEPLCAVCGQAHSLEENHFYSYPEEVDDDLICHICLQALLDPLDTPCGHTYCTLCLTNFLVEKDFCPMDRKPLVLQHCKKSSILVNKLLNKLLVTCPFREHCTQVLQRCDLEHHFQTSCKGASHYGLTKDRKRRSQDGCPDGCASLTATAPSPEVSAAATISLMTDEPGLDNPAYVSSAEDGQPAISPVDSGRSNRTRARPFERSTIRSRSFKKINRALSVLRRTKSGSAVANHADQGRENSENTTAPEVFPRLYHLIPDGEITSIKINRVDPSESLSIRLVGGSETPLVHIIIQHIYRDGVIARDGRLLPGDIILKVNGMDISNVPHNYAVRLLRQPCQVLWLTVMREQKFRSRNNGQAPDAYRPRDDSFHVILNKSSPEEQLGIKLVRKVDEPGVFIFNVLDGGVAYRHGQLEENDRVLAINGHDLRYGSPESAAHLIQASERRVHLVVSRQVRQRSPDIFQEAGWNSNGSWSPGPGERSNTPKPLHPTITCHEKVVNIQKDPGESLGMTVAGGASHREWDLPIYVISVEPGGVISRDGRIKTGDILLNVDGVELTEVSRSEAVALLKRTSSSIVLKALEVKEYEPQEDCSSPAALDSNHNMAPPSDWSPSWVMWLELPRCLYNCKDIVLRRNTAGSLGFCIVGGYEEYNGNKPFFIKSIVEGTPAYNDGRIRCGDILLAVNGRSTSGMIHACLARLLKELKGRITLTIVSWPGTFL"}, "B2": {"name": "U4/U6 small nuclear ribonucleoprotein Prp3 (Homo sapiens), O43395 (parent)", "chain": "MALSKRELDELKPWIEKTVKRVLGFSEPTVVTAALNCVGKGMDKKKAADHLKPFLDDSTLRFVDKLFEAVEEGRSSRHSKSSSDRSRKRELKEVFGDDSEISKESSGVKKRRIPRFEEVEEEPEVIPGPPSESPGMLTKLQIKQMMEAATRQIEERKKQLSFISPPTPQPKTPSSSQPERLPIGNTIQPSQAATFMNDAIEKARKAAELQARIQAQLALKPGLIGNANMVGLANLHAMGIAPPKVELKDQTKPTPLILDEQGRTVDATGKEIELTHRMPTLKANIRAVKREQFKQQLKEKPSEDMESNTFFDPRVSIAPSQRQRRTFKFHDKGKFEKIAQRLRTKAQLEKLQAEISQAARKTGIHTSTRLALIAPKKELKEGDIPEIEWWDSYIIPNGFDLTEENPKREDYFGITNLVEHPAQLNPPVDNDTPVTLGVYLTKKEQKKLRRQTRREAQKELQEKVRLGLMPPPEPKVRISNLMRVLGTEAVQDPTKVEAHVRAQMAKRQKAHEEANAARKLTAEQRKVKKIKKLKEDISQGVHISVYRVRNLSNPAKKFKIEANAGQLYLTGVVVLHKDVNVVVVEGGPKAQKKFKRLMLHRIKWDEQTSNTKGDDDEESDEEAVKKTNKCVLVWEGTAKDRSFGEMKFKQCPTENMAREHFKKHGAEHYWDLALSESVLESTD", "partner": "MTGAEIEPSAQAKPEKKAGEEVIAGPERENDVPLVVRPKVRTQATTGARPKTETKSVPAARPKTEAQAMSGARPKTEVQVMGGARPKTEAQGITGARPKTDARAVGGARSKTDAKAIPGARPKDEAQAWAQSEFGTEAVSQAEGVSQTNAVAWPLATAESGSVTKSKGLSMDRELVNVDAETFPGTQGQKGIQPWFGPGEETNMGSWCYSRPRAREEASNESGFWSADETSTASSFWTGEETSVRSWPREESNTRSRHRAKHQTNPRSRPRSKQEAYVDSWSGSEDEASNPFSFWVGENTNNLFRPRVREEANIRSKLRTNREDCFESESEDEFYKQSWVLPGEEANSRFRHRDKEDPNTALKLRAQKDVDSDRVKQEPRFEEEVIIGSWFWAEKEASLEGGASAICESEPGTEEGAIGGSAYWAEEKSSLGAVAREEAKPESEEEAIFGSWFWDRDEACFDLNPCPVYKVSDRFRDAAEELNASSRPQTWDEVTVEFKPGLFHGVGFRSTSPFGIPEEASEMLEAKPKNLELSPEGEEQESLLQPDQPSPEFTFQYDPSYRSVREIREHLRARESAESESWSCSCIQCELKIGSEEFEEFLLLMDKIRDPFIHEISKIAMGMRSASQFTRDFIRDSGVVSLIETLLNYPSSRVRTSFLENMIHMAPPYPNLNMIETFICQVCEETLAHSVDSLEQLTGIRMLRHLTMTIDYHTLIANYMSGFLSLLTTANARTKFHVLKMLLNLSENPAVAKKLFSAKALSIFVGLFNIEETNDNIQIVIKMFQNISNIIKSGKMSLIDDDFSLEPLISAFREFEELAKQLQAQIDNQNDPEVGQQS"}, "B3": {"name": "Peripheral myelin protein 22 (Homo sapiens), Q01453 (parent)", "chain": "MLLLLLSIIVLHVAVLVLLFVSTIVSQWIVGNGHATDLWQNCSTSSSGNVHHCFSSSPNEWLQSVQATMILSIIFSILSLFLFFCQLFTLTKGGRFYITGIFQILAGLCVMSAAAIYTVRHPEWHLNSDYSYGFAYILAWVAFPLALLSGVIYVILRKRE", "partner": "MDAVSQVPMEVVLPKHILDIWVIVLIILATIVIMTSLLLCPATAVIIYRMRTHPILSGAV"}, "B4": {"name": "LHFPL tetraspan subfamily member 5 protein (Homo sapiens), Q8TAF8 (parent)", "chain": "MVKLLPAQEAAKIYHTNYVRNSRAVGVMWGTLTICFSVLVMALFIQPYWIGDSVNTPQAGYFGLFSYCVGNVLSSELICKGGPLDFSSIPSRAFKTAMFFVALGMFLIIGSIICFSLFFICNTATVYKICAWMQLAAATGLMIGCLVYPDGWDSSEVRRMCGEQTGKYTLGHCTIRWAFMLAILSIGDALILSFLAFVLGYRQDKLLPDDYKADGTEEV", "partner": "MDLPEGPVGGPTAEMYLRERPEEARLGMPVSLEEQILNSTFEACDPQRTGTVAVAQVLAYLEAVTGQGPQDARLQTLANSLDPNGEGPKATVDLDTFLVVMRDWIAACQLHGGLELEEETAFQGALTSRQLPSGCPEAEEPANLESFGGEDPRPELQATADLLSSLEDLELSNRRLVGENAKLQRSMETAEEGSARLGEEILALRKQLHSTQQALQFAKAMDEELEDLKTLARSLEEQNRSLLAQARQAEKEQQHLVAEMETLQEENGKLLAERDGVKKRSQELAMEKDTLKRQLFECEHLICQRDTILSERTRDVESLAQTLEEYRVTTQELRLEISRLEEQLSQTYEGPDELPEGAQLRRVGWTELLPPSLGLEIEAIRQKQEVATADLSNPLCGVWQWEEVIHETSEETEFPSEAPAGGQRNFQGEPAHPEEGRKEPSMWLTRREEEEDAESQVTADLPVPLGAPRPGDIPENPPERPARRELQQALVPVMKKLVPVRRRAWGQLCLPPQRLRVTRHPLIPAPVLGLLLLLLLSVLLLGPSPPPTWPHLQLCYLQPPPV"}, "B5": {"name": "Cytidine deaminase (Homo sapiens), P32320 (parent)", "chain": "MAQKRPACTLKPECVQQLLVCSQEAKKSAYCPYSHFPVGAALLTQEGRIFKGCNIENACYPLGICAERTAIQKAVSEGYKDFRAIAIASDMQDDFISPCGACRQVMREFGTNWPVYMTKPDGTYIVMTVQELLPSSFGPEDLQKTQ", "partner": "B1 partner"}, "B6": {"name": "EF-hand domain-containing protein 1 (Homo sapiens), Q5JVL4 (parent)", "chain": "MVSNPVHGLPFLPGTSFKDSTKTAFHRSQTLSYRNGYAIVRRPTVGIGGDRLQFNQLSQAELDELASKAPVLTYGQPKQAPPADFIPAHVAFDKKVLKFDAYFQEDVPMSTEEQYRIRQVNIYYYLEDDSMSVIEPVVENSGILQGKLIKRQRLAKNDRGDHYHWKDLNRGINITIYGKTFRVVDCDQFTQVFLESQGIELNPPEKMALDPYTELRKQPLRKYVTPSDFDQLKQFLTFDKQVLRFYAIWDDTDSMYGECRTYIIHYYLMDDTVEIREVHERNDGRDPFPLLMNRQRVPKVLVENAKNFPQCVLEISDQEVLEWYTAKDFIVGKSLTILGRTFFIYDCDPFTRRYYKEKFGITDLPRIDVSKREPPPVKQELPPYNGFGLVEDSAQNCFALIPKAPKKDVIKMLVNDNKVLRYLAVLESPIPEDKDRRFVFSYFLATDMISIFEPPVRNSGIIGGKYLGRTKVVKPYSTVDNPVYYGPSDFFIGAVIEVFGHRFIILDTDEYVLKYMESNAAQYSPEALASIQNHVRKREAPAPEAESKQTEKDPGVQELEALIDTIQKQLKDHSCKDNIREAFQIYDKEASGYVDRDMFFKICESLNVPVDDSLVKELIRMCSHGEGKINYYNFVRAFSN", "partner": "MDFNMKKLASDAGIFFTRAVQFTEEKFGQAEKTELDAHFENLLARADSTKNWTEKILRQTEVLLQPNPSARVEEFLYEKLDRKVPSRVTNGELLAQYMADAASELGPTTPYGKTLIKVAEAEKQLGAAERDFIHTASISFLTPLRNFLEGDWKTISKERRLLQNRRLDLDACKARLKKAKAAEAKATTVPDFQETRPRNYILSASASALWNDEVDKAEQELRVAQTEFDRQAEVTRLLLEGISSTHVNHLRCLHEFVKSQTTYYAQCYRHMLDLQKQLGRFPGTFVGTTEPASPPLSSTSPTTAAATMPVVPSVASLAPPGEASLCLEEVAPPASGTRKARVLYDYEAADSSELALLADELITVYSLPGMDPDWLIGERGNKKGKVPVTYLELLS"}},
  "data": [
    {"variants_of": "B1", "conditions": "with lnx1_human LNX1, Q8TBB1", "values": [
      {"variant": "S100P", "effect of a mutation on the interaction": "disrupting interaction strength"}
    ]},
    {"variants_of": "B2", "conditions": "with gasp2_human GPRASP2, Q96D09", "values": [
      {"variant": "T494M", "effect of a mutation on the interaction": "with no effect"},
      {"variant": "P493S", "effect of a mutation on the interaction": "with no effect"},
      {"variant": "A489D", "effect of a mutation on the interaction": "with no effect"}
    ]},
    {"variants_of": "B3", "conditions": "with smim3_human SMIM3, Q9BZL3", "values": [
      {"variant": "R157G", "effect of a mutation on the interaction": "disrupting interaction strength"}
    ]},
    {"variants_of": "B4", "conditions": "with kash5_human KASH5, Q8N6L0", "values": [
      {"variant": "Y127C", "effect of a mutation on the interaction": "with no effect"},
      {"variant": "T165M", "effect of a mutation on the interaction": "with no effect"}
    ]},
    {"variants_of": "B5", "conditions": "with lnx1_human LNX1, Q8TBB1", "values": [
      {"variant": "A70T", "effect of a mutation on the interaction": "with no effect"}
    ]},
    {"variants_of": "B6", "conditions": "with shlb2_human SH3GLB2, Q9NR46", "values": [
      {"variant": "R221H", "effect of a mutation on the interaction": "disrupting interaction strength"},
      {"variant": "R159W", "effect of a mutation on the interaction": "with no effect"}
    ]}
  ]
}
